Assay results reported in patent US20240010720A1 (IOMX THERAPEUTICS, published 2024).
Residue numbers refer to the chain shown, from its start.

T1: recombinant murine IGSF11 extracellular domain (ECD) (mouse, UniProt P0C673 23-240, biotinylated)
T1 construct: also called Mouse IGSF11; murine ECD-IGSF11
T1 sequence: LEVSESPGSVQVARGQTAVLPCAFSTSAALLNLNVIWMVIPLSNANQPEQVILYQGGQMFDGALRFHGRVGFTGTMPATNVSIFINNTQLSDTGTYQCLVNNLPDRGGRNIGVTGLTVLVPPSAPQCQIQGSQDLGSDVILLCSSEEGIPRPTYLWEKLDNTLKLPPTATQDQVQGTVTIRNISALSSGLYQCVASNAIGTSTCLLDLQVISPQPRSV

T2: IGSF11 ECD fused to murine-Fc (human; mouse, UniProt Q5DX21 23-241)
T2 construct: also called Fc-fusion IGSF11 ECD; full-length ECD of IGSF11; not shown: murine Fc
T2 sequence: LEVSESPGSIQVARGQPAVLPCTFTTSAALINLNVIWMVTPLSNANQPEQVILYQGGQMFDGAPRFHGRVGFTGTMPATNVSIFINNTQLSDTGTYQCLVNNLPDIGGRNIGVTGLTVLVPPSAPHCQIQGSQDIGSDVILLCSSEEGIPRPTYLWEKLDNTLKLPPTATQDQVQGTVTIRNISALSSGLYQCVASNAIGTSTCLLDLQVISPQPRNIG

T3: human IGSF11 (VSIG3) on cells (human, UniProt Q5DX21 23-431)
T3 sequence: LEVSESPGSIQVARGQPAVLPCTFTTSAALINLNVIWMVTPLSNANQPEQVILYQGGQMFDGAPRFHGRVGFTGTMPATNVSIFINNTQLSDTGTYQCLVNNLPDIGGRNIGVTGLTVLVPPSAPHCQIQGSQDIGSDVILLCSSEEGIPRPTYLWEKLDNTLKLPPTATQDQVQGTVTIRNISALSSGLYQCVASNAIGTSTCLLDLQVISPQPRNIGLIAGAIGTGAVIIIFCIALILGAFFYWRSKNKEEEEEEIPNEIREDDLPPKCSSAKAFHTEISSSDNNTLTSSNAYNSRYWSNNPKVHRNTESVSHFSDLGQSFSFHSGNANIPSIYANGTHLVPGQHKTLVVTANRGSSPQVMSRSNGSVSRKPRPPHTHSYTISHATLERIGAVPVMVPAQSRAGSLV

B1: C-002 (Fab format) (Fab, V domains shown)
VH: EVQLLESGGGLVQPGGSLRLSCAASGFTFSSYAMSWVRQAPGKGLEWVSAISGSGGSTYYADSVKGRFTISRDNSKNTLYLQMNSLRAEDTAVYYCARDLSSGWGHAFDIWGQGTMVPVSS
VL: ASVLTQPPSVSAAPGQKVTISCSGSSSNIGNNYVSWYQQLPGTAPKLLIYDNNKRPSGIPDRFSGSKSGTSATLGITGLQAEDEADYYCLSYTTSEHHLVFGGGTKLTVL
notes: Fab in E. coli lysate
B2: C-016 (Fab format) (Fab, V domains shown)
VH: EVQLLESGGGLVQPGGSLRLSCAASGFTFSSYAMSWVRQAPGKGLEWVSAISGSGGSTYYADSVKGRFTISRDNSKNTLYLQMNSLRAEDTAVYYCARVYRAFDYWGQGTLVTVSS
VL: B1 VL with L90H, S91L, T94E, S95A, H97S, L99W
notes: Fab in E. coli lysate
B3: C-015 (Fab format) (Fab, V domains shown)
VH: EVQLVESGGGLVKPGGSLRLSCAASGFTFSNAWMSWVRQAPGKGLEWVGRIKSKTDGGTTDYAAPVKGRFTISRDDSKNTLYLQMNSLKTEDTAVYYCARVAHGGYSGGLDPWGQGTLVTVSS
VL: SYELTQPPSVSVSPGQTASITCSGDKLGDKYASWYQQKPGQSPVLVIYQDSKRPSGIPERFSGSNSGNTATLTISGTQAEDEADYYCSSTGTAHTLAVFGGGTKLTVL
notes: Fab in E. coli lysate
B4: C-024 (Fab format) (Fab, V domains shown)
VH: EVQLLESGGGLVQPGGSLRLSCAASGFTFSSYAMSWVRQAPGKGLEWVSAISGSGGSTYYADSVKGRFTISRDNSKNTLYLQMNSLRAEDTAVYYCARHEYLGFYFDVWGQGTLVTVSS
VL: B3 VL with S88L, S89A, T90S, G91H, T92R, A93L, H94T, T95L, L96N, A97Y
notes: Fab in E. coli lysate
B5: C-023 (Fab format) (Fab, V domains shown)
VH: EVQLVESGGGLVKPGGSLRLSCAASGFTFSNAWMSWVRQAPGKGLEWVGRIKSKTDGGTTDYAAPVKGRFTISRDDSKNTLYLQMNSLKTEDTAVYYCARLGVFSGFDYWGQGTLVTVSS
VL: B3 VL with S88H, S89T, T90W, G91T, T92H, A93H, H94S, T95L, L96A, A97V
notes: Fab in E. coli lysate
B6: C-020 (Fab format) (Fab, V domains shown)
VH: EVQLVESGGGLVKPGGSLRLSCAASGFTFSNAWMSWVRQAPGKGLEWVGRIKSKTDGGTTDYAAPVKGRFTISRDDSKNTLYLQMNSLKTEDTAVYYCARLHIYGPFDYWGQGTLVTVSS
VL: B3 VL with S88L, T90Y, G91L, T92A, A93R, H94S, T95G, L96S, A97V
notes: Fab in E. coli lysate
B7: C-017 (Fab format) (Fab, V domains shown)
VH: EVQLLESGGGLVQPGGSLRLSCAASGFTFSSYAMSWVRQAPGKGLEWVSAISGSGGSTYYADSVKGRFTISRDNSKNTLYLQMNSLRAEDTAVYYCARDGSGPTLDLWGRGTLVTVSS
VL: DIQMTQSPSSLSASVGDRVTITCRASQSISSYLNWYQQKPGKAPKLLIYAASSLQSGVPSRFSGSGSGTDFTLTISSLQPEDFATYYCQQHRYIPPWTFGQGTKVEIK
notes: Fab in E. coli lysate
B8: C-021 (Fab format) (Fab, V domains shown)
VH: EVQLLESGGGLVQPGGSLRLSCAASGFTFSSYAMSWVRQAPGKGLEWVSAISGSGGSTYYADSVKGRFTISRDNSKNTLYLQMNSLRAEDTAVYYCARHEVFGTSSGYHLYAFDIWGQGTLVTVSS
VL: DIQMTQSPSSLSASVGDRVTITCRASQSISSYLNWYQQKPGKAPKLLIYAASSLQSGVPSRFSGSGSGTDFTLTISSLQPEDFATYYCQQWSGLPLTFGQGTKVEIK
notes: Fab in E. coli lysate
B9: C-007 (Fab format) (Fab, V domains shown)
VH: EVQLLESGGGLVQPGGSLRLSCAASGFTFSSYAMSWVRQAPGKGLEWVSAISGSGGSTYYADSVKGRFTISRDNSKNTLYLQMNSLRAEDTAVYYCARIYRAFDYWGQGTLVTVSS
VL: B1 VL with L90Q, S91L, T93E, T94E, S95E, E96H, H97S, H98T, L99W
notes: Fab in E. coli lysate
B10: C-026 (Fab format) (Fab, V domains shown)
VH: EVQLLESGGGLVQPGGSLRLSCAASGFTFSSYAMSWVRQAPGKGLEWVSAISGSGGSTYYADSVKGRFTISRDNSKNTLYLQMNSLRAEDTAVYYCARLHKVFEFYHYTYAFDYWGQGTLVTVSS
VL: B1 VL with L90A, T93S, T94S, S95E, E96T, H97S, H98G, L99W
notes: Fab in E. coli lysate
B11: C-001 (Fab format) (Fab, V domains shown)
VH: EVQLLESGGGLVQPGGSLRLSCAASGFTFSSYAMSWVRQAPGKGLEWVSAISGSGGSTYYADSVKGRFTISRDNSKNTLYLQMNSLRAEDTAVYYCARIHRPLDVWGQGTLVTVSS
VL: B1 VL with L90G, Y92W, T93L, T94E, S95E, E96R, H97S, H98Q, L99Y
notes: Fab in E. coli lysate
B12: C-008 (Fab format) (Fab, V domains shown)
VH: EVQLLESGGGLVQPGGSLRLSCAASGFTFSSYAMSWVRQAPGKGLEWVSAISGSGGSTYYADSVKGRFTISRDNSKNTLYLQMNSLRAEDTAVYYCTTDNGHNRDWGQGTLVTVSS
VL: ASVLTQPPSVSAAPGQKVTISCSGSSSNIGNNYVSWYQQLPGTAPKLLIYDNNKRPSGIPDRFSGSKSGTSATLGITGLQAEDEADYYCGTWTRSSGVFGGGTKLTVL
notes: Fab in E. coli lysate
B13: C-005 (Fab format) (Fab, V domains shown)
VH: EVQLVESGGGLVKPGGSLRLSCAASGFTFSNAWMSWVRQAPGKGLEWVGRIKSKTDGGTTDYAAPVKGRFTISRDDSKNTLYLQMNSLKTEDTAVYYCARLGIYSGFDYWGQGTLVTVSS
VL: B3 VL with S88H, T90Y, G91T, T92G, A93K, H94P, T95S, L96Q, A97V
notes: Fab in E. coli lysate
B14: C-009 (Fab format) (Fab, V domains shown)
VH: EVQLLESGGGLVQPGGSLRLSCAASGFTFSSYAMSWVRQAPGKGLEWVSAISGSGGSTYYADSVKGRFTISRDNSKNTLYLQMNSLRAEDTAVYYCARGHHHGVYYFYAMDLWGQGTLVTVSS
VL: B3 VL with S88Q, T90Y, G91S, T92G, A93S, H94S, A97H
notes: Fab in E. coli lysate
B15: C-022 (Fab format) (Fab, V domains shown)
VH: EVQLLESGGGLVQPGGSLRLSCAASGFTFSSYAMSWVRQAPGKGLEWVSAISGSGGSTYYADSVKGRFTISRDNSKNTLYLQMNSLRAEDTAAYYCARMAAGASWGTFDYWSQGTLVTVSS
VL: B8 VL with W91R, L94S
notes: Fab in E. coli lysate
B16: C-026 (IgG1 format) (antibody, V domains shown)
VH: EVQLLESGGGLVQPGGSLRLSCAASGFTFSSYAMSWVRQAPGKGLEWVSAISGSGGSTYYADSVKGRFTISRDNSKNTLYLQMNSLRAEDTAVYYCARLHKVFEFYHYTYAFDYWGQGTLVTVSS
VL: B1 VL with L90A, T93S, T94S, S95E, E96T, H97S, H98G, L99W
notes: wildtype human IgG1 and kappa or lambda constant regions
B17: C-024 (IgG1 format) (antibody, V domains shown)
VH: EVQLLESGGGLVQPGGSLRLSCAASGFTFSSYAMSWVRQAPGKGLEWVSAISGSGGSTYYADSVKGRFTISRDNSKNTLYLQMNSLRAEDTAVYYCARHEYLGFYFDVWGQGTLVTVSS
VL: B3 VL with S88L, S89A, T90S, G91H, T92R, A93L, H94T, T95L, L96N, A97Y
notes: as for B16
B18: C-022 (IgG1 format) (antibody, V domains shown)
VH: B15 VH
VL: B8 VL with W91R, L94S
notes: as for B16
B19: A-030 (scFv format) (scFv, V domains shown)
VH: QVQLVQSGAEVKKPGASVKVSCKASGYTFTGYYMHWVRQAPGQGLEWMGWINPNSGNTGYAQKFQGRVTMTRNTSISTAYMELSSLRSEDTAVYYCARGGQQQLVLDDYWGQGTLVTVSS
VL: DIQLTQSPSTLSASVGDRVTITCRASQSIGGWLAWYQHKPGKAPKLLIYAASSLQSGVPSRFSGSGSGTDFTLTISSLQPEDFATYYCRQSYSTPPTFGQGTKVEIK
notes: scFv
B20: A-017 (scFv format) (scFv, V domains shown)
VH: B19 VH
VL: DIVLTQSPASLSASVGDRITITCQASQDIRHHLNWFQHKPGKAPKLLISDSSNLETGVPSRFSGSGSGTDFSFTISRLQPEDIATYYCQQYDSLPRTFGQGTKLEIK
notes: scFv
B21: A-037 (scFv format) (scFv, V domains shown)
VH: B19 VH
VL: NFMLTQPHSVSESPGKTVTISCTGSSGSIASNYVQWYQQRPGSAPTTVIYEDNQRPSGVPDRFSGSIDSSSNSASLTISGLKTEDEADYYCQSYDSSNQRVFGGGTKLTVL
notes: scFv
B22: A-032 (scFv format) (scFv, V domains shown)
VH: B19 VH with I51M
VL: not shown
B23: A-019 (scFv format) (scFv, V domains shown)
VH: B19 VH
VL: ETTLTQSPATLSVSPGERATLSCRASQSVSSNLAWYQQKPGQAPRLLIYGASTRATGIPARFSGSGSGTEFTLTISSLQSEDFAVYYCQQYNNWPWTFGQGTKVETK
notes: scFv
B24: A-036 (scFv format) (scFv, V domains shown)
VH: B19 VH with N57G, G59N
VL: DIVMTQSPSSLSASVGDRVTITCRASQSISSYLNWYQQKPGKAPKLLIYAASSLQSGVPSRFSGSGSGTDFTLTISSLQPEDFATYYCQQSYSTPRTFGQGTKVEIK
notes: scFv
B25: A-014 (scFv format) (scFv, V domains shown)
VH: QVQLVQSGAEVKKPGASVKVSCKASGYTFNDYYIHWVRQAPGQGLEWMGWFNPSTGGANYAQKFQGRVTMTRDTSISTAYLEVSSLRSDDTAVYYCARGNSPDLDYWGQGTLVTVSS
VL: DIQMTQSPDSLTVSLGERATINCKSSQSLLHSSNNKNYLAWYQQRPGQPPKLLIYWASTRQSGVPDRFSGSGSGTDFTLTINSLQADDMAVYYCQQYYTTTPNTFGQGTKLEIK
notes: scFv
B26: A-031 (scFv format) (scFv, V domains shown)
VH: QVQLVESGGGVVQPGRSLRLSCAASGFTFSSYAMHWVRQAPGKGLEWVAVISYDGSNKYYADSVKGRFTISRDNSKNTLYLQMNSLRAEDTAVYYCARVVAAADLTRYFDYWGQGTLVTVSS
VL: EIVLTQSPGTVSLSPGERATLSCRASQSVPKNYLAWFQQKPGQAPRLVIHTASSRAPGIPDRFTGSGSGTDFTLTISRLEPEDFAVYYCQQYGTSPNTFGQGTKLDIK
notes: scFv

What follows are binders tested against T1, recombinant murine IGSF11 extracellular … (assay: ELISA, Fab).
Experimental: (§1) In order to identify IGSF11-specific binding ABPs, monoclonal Fabs expressed from E. coli were generated from the enriched set of anti-IGFS11 antibody-expressing phage. After bacterial lysis, the Fabs were tested for their binding properties and cross-reactivity profile on recombinant ECD-IGSF11 (human, mouse and cynomolgus monkey) by standard ELISA. Briefly, biotinylated recombinant ECD-IGSF11 from human, mouse, or cynomolgus monkey were immobilized at 2 ug/mL on a streptavidin-coated 384-well Maxisorp plate. The surface was blocked with 2% (w/v) skim milk powder in PBST. After three wash cycles with PBST, a bacterial lysate of each of the anti-IGSF11 Fabs in 2% (w/v) skim milk powder was applied to the immobilized IGSF11 and incubated for 1 h. After removing all unbound Fab by 3 wash cycles with PBST, bound Fab antibodies were detected with a goat anti-human Fab antibody conjugated with horseradish peroxidase. After three wash cycles with PBST the ELISA was developed with TMB substrate.

| Binder | A450 |
| --- | --- |
| B1 | < 1 |
| B2 | < 1 |
| B3 | < 1 |
| B4 | < 1 |
| B5 | < 1 |
| B6 | < 1 |
| B7 | < 1 |
| B8 | < 1 |

These binders were tested against T4, Streptavidin (UniProt P22629 37-163, limits assumed) (assay: ELISA, Fab).
T4 construct: also called negative antigen; irrelevant antigen
T4 sequence (P22629 37-163 limits assumed): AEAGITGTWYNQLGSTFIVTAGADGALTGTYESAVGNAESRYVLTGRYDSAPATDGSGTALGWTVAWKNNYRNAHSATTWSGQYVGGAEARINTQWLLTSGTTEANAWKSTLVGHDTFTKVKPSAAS
Experimental: as §1

| Binder | A450 |
| --- | --- |
| B9 | < 0.1 |
| B10 | < 0.1 |
| B1 | < 0.1 |
| B11 | < 0.1 |
| B2 | < 0.1 |
| B12 | < 0.1 |
| B13 | < 0.1 |
| B14 | < 0.1 |
| B3 | < 0.1 |
| B5 | < 0.1 |
| B8 | < 0.1 |
| B15 | < 0.1 |

Each binder was assayed against T2, IGSF11 ECD fused to murine-Fc (assay: ELISA, IgG).

| Binder | EC50 |
| --- | --- |
| B16 | 1 to 20 nM |
| B17 | 1 to 20 nM |
| B18 | 1 to 20 nM |

These binders were tested against T4, Streptavidin (assay: ELISA, scFv).

| Binder | binding result |
| --- | --- |
| B19 | no binding (tested: <0.025 or <0.05 RFU) |
| B20 | no binding (tested: <0.025 or <0.05 RFU) |
| B21 | no binding (tested: <0.025 or <0.05 RFU) |
| B22 | no binding (tested: <0.025 or <0.05 RFU) |
| B23 | no binding (tested: <0.025 or <0.05 RFU) |
| B24 | no binding (tested: <0.025 or <0.05 RFU) |
| B25 | no binding (tested: <0.025 or <0.05 RFU) |
| B26 | no binding (tested: <0.025 or <0.05 RFU) |

Each binder was assayed against T3, human IGSF11 (VSIG3) on cells (assay: FACS % positive cells, scFv).

| Binder | binding result |
| --- | --- |
| B19 | binds |
| B20 | binds |
| B21 | binds |
| B22 | binds |
| B23 | binds |
| B24 | binds |
| B25 | binds |
| B26 | binds |
